Data taken from patent publication US20020065210A1 (Genentech, published 2002).
Values belong to the molecule of their own block, whether it stands above or below them.

T1: Fc-tagged ectodomain of TNFR1 (UniProt P19438 30-211, limits assumed)
T1 construct: extracellular domain; Control immunoadhesin; also called Fc-tagged TNFR1; not shown: Fc tag
T1 sequence (looked up): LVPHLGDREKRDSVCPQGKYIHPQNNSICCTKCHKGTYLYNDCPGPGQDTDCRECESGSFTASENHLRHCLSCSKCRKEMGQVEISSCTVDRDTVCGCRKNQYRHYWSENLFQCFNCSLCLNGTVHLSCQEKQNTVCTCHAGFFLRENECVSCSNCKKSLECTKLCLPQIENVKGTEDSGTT

T2: OPG (also referred to as TRANCE, RANKL), full-length, expressed from pRK5 on transiently transfected 293 cells (UniProt O14788 1-317, limits assumed)
T2 construct: whole, on cells
T2 sequence (looked up): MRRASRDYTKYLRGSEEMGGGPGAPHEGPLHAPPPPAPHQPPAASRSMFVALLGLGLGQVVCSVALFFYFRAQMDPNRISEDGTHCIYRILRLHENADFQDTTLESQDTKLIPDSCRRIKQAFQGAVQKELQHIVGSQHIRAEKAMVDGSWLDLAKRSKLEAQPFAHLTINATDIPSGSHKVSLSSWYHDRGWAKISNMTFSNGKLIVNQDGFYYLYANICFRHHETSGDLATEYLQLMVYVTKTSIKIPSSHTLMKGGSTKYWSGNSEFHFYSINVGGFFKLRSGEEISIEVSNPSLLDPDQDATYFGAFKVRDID

B1: purified, soluble Fas ligand (Alexis Biochemicals) (ligand, UniProt P48023 103-281, looked up)
chain: QLFHLQKELAELRESTSQMHTASSLEKQIGHPSPPPEKKELRKVAHLTGKSNSRSMPLEWEDTYGIVLLSGVKYKKGGLVINETGLYFVYSKVYFRGQSCNNLPLSHKVYMRNSKYPQDLVMMEGKMMSYCTTGQMWARSSYLGAVFNLTSADHLYVNVSELSLVNFEESQTFFGLYKL
notes: Commercial soluble form
B2: full-length Apo-3 ligand (also referred to as TWEAK) expressed from pRK5 on transiently transfected 293 cells (ligand, UniProt O43508 1-249, looked up)
chain: MAARRSQRRRGRRGEPGTALLVPLALGLGLALACLGLLLAVVSLGSRASLSAQEPAQEELVAEEDQDPSELNPQTEESQDPAPFLNRLVRPRRSAPKGRKTRARRAIAAHYEVHPRPGQDGAQAGVDGTVSGWEEARINSSSPLRYNRQIGEFIVTRAGLYYLYCQVHFDEGKAVYLKLDLLVDGVLALRCLEEFSATAASSLGPQLRLCQVSGLLALRPGSSLRIRTLPWAHLKAAPFLTYFGLFQVH
notes: whole, on cells
B3: recombinant Fc-tagged DcR3 (expressed as described in Example 7, purified by Protein A chromatography) (Fc fusion)
chain: VAETPTYPWRDAETGERLVCAQCPPGTFVQRPCRRDSPTTCGPCPPRHYTQFWNYLERCRYCNVLCGEREEEARACHATHNRACRCRTGFFAHAGFCLEHASCPPGAGVIAPGTPSQNTQCQPCPPGTFSASSSSSEQCQPHRNCTALGLALNVPGSSSHDTLCTSCTGFPLSTRVPGAEECERAVIDFVAFQDISIKRLQRLLQALEAPEGWGPTPRAGRAALQLKLRRRLTELLGAQDGALLVRLLQALRVARMPGLERSVRERFLPVH
modifications: biotinylated in the FACS assay (sites not given)
notes: also called biotinylated Fc-tagged DcR3; DcR3-IgG; not shown: Fc tag (Fc region of IgG)

Legend:
[1] = target: Fas expressed on human HeLa S3 cells (human) (UniProt P25445); assay: cell-based or functional assay
Fas expressed on human HeLa S3 cells (human), sequence (P25445 26-335): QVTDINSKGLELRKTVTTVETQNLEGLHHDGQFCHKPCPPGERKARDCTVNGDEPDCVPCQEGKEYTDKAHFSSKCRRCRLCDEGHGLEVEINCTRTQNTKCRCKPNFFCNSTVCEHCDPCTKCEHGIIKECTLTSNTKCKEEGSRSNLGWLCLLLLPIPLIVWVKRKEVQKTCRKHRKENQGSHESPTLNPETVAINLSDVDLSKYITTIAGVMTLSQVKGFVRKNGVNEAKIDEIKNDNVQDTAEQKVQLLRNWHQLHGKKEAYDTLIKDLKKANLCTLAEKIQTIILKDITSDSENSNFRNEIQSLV

[2] = target: T1, Fc-tagged ectodomain of TNFR1; assay: co-immunoprecipitation with protein A-sepharose, anti-Fas ligand immunoblot
Method: Precipitates were resolved by SDS polyacrylamide gel electrophoresis (4-20% gradient) under reducing conditions (25 mM dithiothreitol), and visualized by immunoblot, followed by enhanced chemiluminescence detection (Amersham) with rabbit polyclonal anti-Fas ligand antibody (Oncogene Research Products) at 2 microgram/ml.

[3] = target: B3; assay: FACS, biotinylated Fc-tagged DcR3 on transiently transfected 293 cells
Text: (§1) Human 293 cells (ATCC CRL 1573) were transiently transfected with empty pRK5 vector (see Example 5) or pRK5 encoding full-length TNF-alpha [Pennica et al., Nature, 312:724-729 (1984)], Fas ligand [Suda et al., Cell, 75:1169-1178 (1993)], LIGHT [Mauri et al., Immunity, 8:21 (1998)], Apo-2 ligand [[WO 97/25428 published Jul. 17, 1997)], Apo-3 ligand (also referred to as TWEAK) [Marsters et al., Current Biology, 8:525 (1998); Chicheportiche et al., J. Biol. Chem., 272:32401 (1997)], or […] (also referred to as TRANCE, RANKL) [Wong et al., J. Biol. Chem., 272:25190 (1997); Anderson et al., Nature, 390:175 (1997); Lacey et al., Cell, 93:165 (1998)].

[4] = target: T2, OPG (also referred to as TRANCE, …); assay: as above
Text: as §1

apoptosis of transfected HeLa S3 cells (annexin binding by FACS) [1]: 25%
Molecule: full-length Fas ligand expressed from pRK5 on transiently transfected cells (from UniProt P48023 1-281)

Molecule: B1
binding result [2]: no binding

Molecule: B2
binding result [3]: no binding

Molecule: B3
binding result [4]: no binding
